Measured values: US20220041738A1 (SAITAMA MEDICAL UNIVERSITY, published 2022)

How the values were obtained:
[1] = target: T1, human ALK2-G356D on cells (human, UniProt Q04771 21-509); assay: immunofluorescence (legend of FIG. 4)
T1 sequence: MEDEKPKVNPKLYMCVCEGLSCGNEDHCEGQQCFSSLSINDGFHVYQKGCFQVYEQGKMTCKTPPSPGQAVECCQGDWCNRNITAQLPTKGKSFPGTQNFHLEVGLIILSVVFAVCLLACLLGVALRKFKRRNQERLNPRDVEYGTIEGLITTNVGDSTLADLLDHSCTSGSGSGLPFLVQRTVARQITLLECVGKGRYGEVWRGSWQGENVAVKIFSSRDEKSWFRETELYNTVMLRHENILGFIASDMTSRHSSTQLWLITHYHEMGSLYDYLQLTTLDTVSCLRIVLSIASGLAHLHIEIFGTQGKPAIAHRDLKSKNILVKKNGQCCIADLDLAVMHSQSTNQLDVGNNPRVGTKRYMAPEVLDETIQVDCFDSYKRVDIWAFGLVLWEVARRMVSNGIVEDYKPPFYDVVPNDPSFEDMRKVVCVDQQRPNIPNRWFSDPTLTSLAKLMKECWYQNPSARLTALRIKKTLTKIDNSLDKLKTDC
Procedure: Mouse C2C12 cells were seeded into a 96-well plate (Greiner Bio-One) at 0.5×10³ cells/well, and cultured in 15% FBS-containing DMEM medium overnight under the conditions of 5% CO₂ at 37° C. On the following day, the C2C12 cells were transfected with each of a wild-type human ALK2 cDNA integrated into pcDEF3; pcDEF3/human ALK2-L196P, pcDEF3/human ALK2-P197_F198delinsL, pcDEF3/human ALK2-R202I, pcDEF3/human ALK2-R206H, pcDEF3/human ALK2-Q207E, pcDEF3/human ALK2-R258S, pcDEF3/human ALK2-G325A, pcDEF3/human ALK2-G328E, pcDEF3/human ALK2-G328R, pcDEF3/human ALK2-G328W, pcDEF3/human ALK2-G356D, and pcDEF3/human ALK2-R375P, which are variants identified in FOP; and pcDEF3 as a control, using Lipofectamine 2000 (Invitrogen), and further cultured overnight.
The C2C12 cells were fixed with 10% neutral formalin (Nacalai Tesque, Japan) for 20 minutes at room temperature, and then blocked with 10% goat normal serum for 30 minutes. After the blocking agent was removed, purified IgG diluted to 10 μg/mL with the blocking agent was added, and the cells were left for 1 hour at room temperature. After the cells were washed with PBS three times, Goat Alexa 594-conjugated anti-rat IgG (Invitrogen) diluted to 1:1000 with the blocking agent was added, and the cells were left for 1 hour at room temperature. After the cells were washed with PBS three times, the cells were fixed with 10% neutral formalin for 15 minutes at room temperature, and nuclear-stained with DAPI (LifeTechnologies). Fluorescent signals were analyzed with a fluorescence microscope BZ-9000 (Keyence).

[2] = target: T2, human ALK2-Q207E on cells (human, UniProt Q04771 21-509); assay: immunofluorescence on transfected, formalin-fixed C2C12 cells, IgG at 10 µg/mL, Alexa 594 anti-rat IgG
T2 sequence: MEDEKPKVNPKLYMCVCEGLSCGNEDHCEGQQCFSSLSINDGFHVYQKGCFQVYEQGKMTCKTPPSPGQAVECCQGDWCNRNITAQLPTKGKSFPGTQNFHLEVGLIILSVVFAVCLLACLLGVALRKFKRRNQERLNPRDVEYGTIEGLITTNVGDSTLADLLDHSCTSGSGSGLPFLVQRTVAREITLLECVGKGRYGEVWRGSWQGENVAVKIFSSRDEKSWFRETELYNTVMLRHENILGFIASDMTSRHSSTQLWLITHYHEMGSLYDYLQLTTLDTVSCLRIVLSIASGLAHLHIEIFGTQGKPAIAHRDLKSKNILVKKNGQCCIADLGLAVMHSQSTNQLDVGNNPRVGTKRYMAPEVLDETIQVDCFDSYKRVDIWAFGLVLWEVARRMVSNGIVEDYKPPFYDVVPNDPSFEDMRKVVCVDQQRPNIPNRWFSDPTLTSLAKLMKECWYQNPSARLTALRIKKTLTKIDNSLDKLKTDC
Procedure, shortened: (§1)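 C2C12 mouse myoblasts transfected overnight with human ALK2 cDNA (wild-type or FOP variants incl. G325A, pcDEF3 vector). Cells formalin-fixed, goat-serum blocked, stained 1 h RT with purified IgG at 10 µg/mL, then Alexa 594 anti-rat IgG 1 h; DAPI nuclei, fluorescence microscopy read-out.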

[3] = target: T3, human ALK2-R206H on cells (human, UniProt Q04771 21-509); assay: as above
T3 sequence: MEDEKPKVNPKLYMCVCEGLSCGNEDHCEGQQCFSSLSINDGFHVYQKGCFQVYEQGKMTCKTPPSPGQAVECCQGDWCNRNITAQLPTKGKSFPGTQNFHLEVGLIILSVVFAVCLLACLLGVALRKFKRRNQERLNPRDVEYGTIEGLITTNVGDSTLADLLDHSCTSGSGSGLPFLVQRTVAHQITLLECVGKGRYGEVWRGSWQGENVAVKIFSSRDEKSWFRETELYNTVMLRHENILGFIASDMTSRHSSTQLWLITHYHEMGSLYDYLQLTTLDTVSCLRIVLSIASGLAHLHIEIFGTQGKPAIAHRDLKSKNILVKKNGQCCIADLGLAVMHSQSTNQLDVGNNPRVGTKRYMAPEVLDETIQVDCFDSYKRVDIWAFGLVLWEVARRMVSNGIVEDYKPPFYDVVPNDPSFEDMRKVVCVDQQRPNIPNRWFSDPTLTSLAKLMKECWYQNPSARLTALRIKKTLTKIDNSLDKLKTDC
Procedure, shortened: as §1

[4] = target: T4, human ALK2-L196P on cells (human, UniProt Q04771 21-509); assay: as above
T4 sequence: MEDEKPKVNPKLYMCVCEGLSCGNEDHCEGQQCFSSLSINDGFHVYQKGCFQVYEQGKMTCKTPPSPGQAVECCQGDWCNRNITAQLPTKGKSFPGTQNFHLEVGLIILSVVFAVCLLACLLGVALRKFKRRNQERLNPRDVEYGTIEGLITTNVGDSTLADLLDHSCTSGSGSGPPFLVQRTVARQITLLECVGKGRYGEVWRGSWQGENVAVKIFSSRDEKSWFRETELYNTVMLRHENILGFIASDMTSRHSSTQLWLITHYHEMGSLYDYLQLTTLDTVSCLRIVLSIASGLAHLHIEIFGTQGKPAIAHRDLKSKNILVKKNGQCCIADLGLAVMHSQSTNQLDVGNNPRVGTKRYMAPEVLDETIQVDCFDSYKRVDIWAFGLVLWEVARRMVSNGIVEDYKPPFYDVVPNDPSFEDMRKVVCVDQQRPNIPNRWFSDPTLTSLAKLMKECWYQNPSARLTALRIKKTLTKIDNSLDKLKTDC
Procedure, shortened: as §1

| Binder | binding result [1] | binding result [2] | binding result [3] | binding result [4] |
| --- | --- | --- | --- | --- |
| rat anti-ALK2 monoclonal antibody A2-11E (antibody, V domains shown, Rat monoclonal IgG from a hybridoma; also called 11E2) VH: EVQLVETGGGLVQPGRSLKLSCVASGFTFSNYYMYWIRQAPGKGLEWISSINTDGGSTYYPDSVKGRFAISRDNAENTVYLQMNSLRSEDTATYYCAKSTPNIPLAYWGQGTLVTVSS VL: DIQMTQSPSLLSASVGDRVTLSCKASQNIYKYLNWFQQKLGEAPKLLIYYSNSLQTGIPSRFSGSGSGTDFTLTISSLQPEDVAIYFCFQYSSGPTFGPGTKLELKR | binds |  |  |  |
| rat anti-ALK2 monoclonal antibody A2-15A (antibody, V domains shown, Rat monoclonal IgG from a hybridoma; also called 15A6) VH: EVQLVESGGGLVQPGRSLKLSCAASGFTFSHYYMAWVRQAPTKGLEWVASITNSGGSINYRDSVKGRFTISRDNAKSTLYLQMDSLRSEDTATYYCTREGGENYGGYPPFAYWGQGTLVTVSS VL: DIVLTQSPALAVSLGQRATISCRANQGVSLSRYNLMHWYQQKPGQKPKLLIYRSSNLASGIPARFSGSGSGTDFTLTINPVQADDIATYYCQQSRESPFTFGAGTKLELKR | binds |  |  |  |

The remaining lines, values ahead:

| binding result [1] | binding result [2] | binding result [3] | binding result [4] | Binder |
| --- | --- | --- | --- | --- |
|  | binds | binds | binds | rat anti-ALK2 monoclonal antibody A2-25C (antibody, V domains shown, Rat monoclonal IgG from a hybridoma; also called 25C11) VH: EVQLVESGGGLVQPGGSLKLSCAASGFTFSYYAMSWVCQAPTKGLEWVASISRGGDNTYYRDTVKGRFTTSRDNAKNTLYLQMDSLRSEDTATYYCARLNYNNYFDYWGQGVMVTVSS VL: DIQMTQSPASLSASLEEIVTITCQASQDIGNWLSWYQQKPGKSPQLLIYGATSLADGVPSRFSGSRSGTQYSLKISRLRVEDIGIYYCLQAYSAPFTFGSGTKLEIKR |
|  | binds | binds | binds | rat anti-ALK2 monoclonal antibody A2-27D (antibody, V domains shown, Rat monoclonal IgG from a hybridoma; also called 27D11) VH: EVQLVESGGGLVQPGRSLKLSCLASGSTFSNYGMKWIRQAPGKGLEWVASISRSSTYIYYADTVKGRFTISRDNARNTLYLQMTSLRSEDTALYYCAAAISTPFYWYFDFWGPGTVVTVSS VL: EIVLTQSPTTMAASPGEKVTLNCLASSSVSYMTWYQQKSGASPKLWIYGTSNLASGVPNRFSGSGSGTSYSLAISSMEAEDVATYYCLHLTSYPPYTFGAGTKLELKR |
